Measurements as given in the nanobody polyreactivity screen of Harvey et al. (2022).

Test: yeast display, Sf9 membrane polyspecificity reagent, FACS + sequencing; frameworks hold sequencing errors
Method in brief: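 After 36–48 hours of galactose induction, yeast (Saccharomyces cerevisiae BJ5465) displaying a synthetic nanobody library were stained at 4 °C for 1 hour with 10% biotinylated, detergent-solubilized Sf9 membrane reagent. Streptavidin microbeads enriched the stained cells before FACS sorting into low and high (top ~1%) gates on anti-HA and streptavidin fluorescence. Each clone's polyreactivity label reflects its gate of origin.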

| Sequence | polyreactivity (PSR sort gate) |
| --- | --- |
| QVQLVESGGGLVQAGGSLRLSCAASGRIFPTNAMGWYRQAPGKERELVAAIPVSGGSTYYADSVKGRFTISRDNAKNTVYLQMNSLKPEDTAVYYCAVDDRASVGSRLDHWGQGTQVTVSS | low polyreactivity |
| QVQLVESGGGLVQAGGSLRLSCAASGRIFSRNTMGWYRQAPGKERELVATISWSGSRTYYADSVKGRFTISRDNAKNTVYLQMNSLKPEDTAVYYCAARLWPSYLSYGKTGDYWGQGTQVTVSS | high polyreactivity |
| QVQLVESRGGLVQAGGSLRLSCAASGSIFDGYAMGWYRQAPGKERELVAAITWSGGRTYYADSVKGRFTISRDNAKNTVYLQMNSLKPEDTAVYYCNAVTGSWRYDYWGQGTQVTVSS | high polyreactivity |
| QVQRVDSGGGIVQAGGSLRLSCADSGSIFNRYAMGWYRQAPGKERELFAAISSSSGSTYYADSVKGRFTISRDNSKNTVYLQMNSLKPEDTAVYYCATRRKVVPTQVGYYYRGGVDYWGQGTQVTVSS | high polyreactivity |
| QVQLVESGGGLVQAGGSLRLSCAASGITFSDNTMGWYRQAPGKERELVAAISWRGGLTYYADSVKGRFTISRDNAKNTVYLQMNSVKPEDTAVYYCIAVTSSKARYSSYDYWGQGTQVTVSS | high polyreactivity |
| QVQLVESGGGLVQAGGSLRLSCAASVSNFPPYVMGWYRQAPGKERELVAAITWSSGSTYYADSVKGRFTISRDNAKNTVYLQMNRLKPEDTAVYYCAAVLPFKYDYWGQGTQVTVSS | low polyreactivity |
| QVQLVESGGGLVKAGAILRLSCPASGSTFQSYAKGWSRQEPGKESELVAAISSGGITYYADSVKGRFTISRDNAKNTVYFQMNSLKPEDTAVYYCAKVPTYLISNRYSRYDYWGQGTQVTVSS | low polyreactivity |
| QVQLVESGGGLVQAGGSLRLSCAASGRTFYYYAMGWYRQAPGKEREFVAAIRFSGGNTYYADSVKGRFTISRDNAKNTVYLQMNSLKPEDTAVYYCAARRLLYKYWTGGPYDYWGQGTQVTVSS | high polyreactivity |
| QDQHVESGGGLVQAGGSLRLSCAASGSTFTGYDMGRYRQAPGKERELVAAISWNGGSTYYADSVKGRFTISRDNAKNTVYLQMNSLKPEDTAVYYCAKVTLTHSRFRYYYWGQGTQVTVSS | high polyreactivity |
| QVQLVESGGGLVQAGGSLRLSCAASGLTFGTYAMGWYRQAPGKERELVAAIRSGGSTNYADSVKGRFTISRDTAKNTVYLQMNILKPEDNAVYYCAKRYYWDRYYYWGQGTPVTVSS | high polyreactivity |
| QDQLVESGGGLVQAGGSLRLSCAASGSTFSYNMGWYRQAPGKERELVAAISGSGGSTYADSVKGRFTISRDNAKNTVYLQMNSLKPEDTAVYYCATVRYWVHEYGYWGQGTQVTVSS | high polyreactivity |
| QVQLVESGGGLVQAGGSLSLSCAASGSTLRQYAMGWYRQAPGKERELVAGISYRGGRTYYADSVKVRFTISRDNAKNTVYLQMNSLKPEDTAVYYCNALRHYGDISVDCDDYWGQGTQVTVSS | high polyreactivity |
| QVQLEESGGGLVQAGGSLRLSCAASGRIFQYYDMGWYRPATGKERELVAGIRTNGSSTYYADSVKGRFTISRDNAKNTVYLQMNSLKPEDSAVYYCAARHYRYLRQYDYWGQGTQVTVSS | low polyreactivity |
| QVQLVESGGGLVQAGGSLRLSCAASGSTFTPYVMGWYRQAPGKEREVVAAISNVGRTYYADSVKGRFTISRDNAKNTVYLQMNSLKPEDTAVYYCAVRRDKNYYDWGQGTQVTVSS | high polyreactivity |
| QVQLVDSGGGLVQAGGSLRLSCAASGSILFEYMGWYRQAPGKERELVAAITIRDGGTYYADSVKGRFTISRDNAKNTVYLQMNSLKPEDTAVYYCNADFSGGWRYDYWGQGTQVTVSS | low polyreactivity |
| QVQLLESGGGLVQAGGSLRLSCASSGSIFFRNAMVWYRQAPGKEREYVAAITGSSVSTYYADSVKGRFTISRDNAKNTVYLQMNSLKPEDTAVYYCAVRKWIGYNPYDDWGQGTQVTVSS | high polyreactivity |
| QVQLVESGGGLVQAGGSLRLSCAASGSIFGQYTMGWYRQAPGKERELVAVISTRGGSTYYADSVKGRFTISRDNAKNTVYLQMNSLKPEDTAVYYCAASAFRGREMDYWGQGTQVTVSS | low polyreactivity |
| QVQLVESGGGLVQAGGSLRLSCAASGFIFDYYAMGWYRQAPGKERELVAAITRDGGGTYYADSVKGRFTISRDNEKNSVYLQMNSLKPEDTAVYYCAAETYWYYRANYDYWGQGTQVTVSS | high polyreactivity |
| QVQLQESGRRPGAAGGSPRMSCAASGNIFWVAVMGRYRQAPGKERELVASIGFGCTTYYADSVKCRFTISRDNAKKTVYLQMISLKPEDTAVYYCAAPNYDWGELDYWGQGTQVPVSS | low polyreactivity |
| QVQLVESGGGLVQAGGSLRLSCAASGSTFSPYAMGWYRQAPGKERELVAAITRSGSSTYYADSVKGRFTISRDNAKNTVYLQMNSLKPEDTAVYYCAADTGVTRSYRYTSWRIKYESWGQGTQVTVSS | low polyreactivity |
| QVQLQESGGGLVLAGGSLRLSSAATGSISAQAYMGWDRQAPGKEREHVAGINYGDNTNYADSVKGRFTISRDNEHSVSADEQPESGRYRCVLLRGFLELFYYYIYWGQGTQVTVSS | high polyreactivity |
| QVQLVESGGGLVQSGGSLRLSCAASGFIFRWYAMGWYRQAPGKERELVASIDWSGTRTNYADSVKGRFTISRDNAKNTVYLQMNSLKPEDTAVYYCNAVPTSLGETDYDYWGQGTQVTVSS | low polyreactivity |

| Sequence | polyreactivity (PSR sort gate) |
| --- | --- |
| QVQLVESGGGLVQAGGSLRFSCAASGRIFGTYAMGWYRQAPGKERELVAAITQSGGRTYYADSVKGRFTISRDNAKNTVYLQMNSLKPEDTAVYDCNKVTYRGIGLGYDYWGQGTQVTVSS | high polyreactivity |
| QVQLVESGGGLDQAGGSLRLSCAASGFTSYLYTMGWYRQAPGKERELVAAISNSGGNTYYADSLKGRFTISRDIAKKTVYLQMNSLKPEDTAVYYCAAVRRISRYDYWGQGTQVTVSS | high polyreactivity |
| QVQLVESGGGIVQAGGSLRLSCAASGSIFQYNAMGWYRQAPGKERELVAAITRGDSTYYADSVKGRFTISRDNAKNTVYLQMNSLKPEDTAVYYCAARPRGKYDYWGQGTQVTVSS | high polyreactivity |
| QVQLVESGGGLVQAGGSLRLSCAASGRIFRGYAMGWYRPAPGKERELVAAINWSGGSTDYADSVKGRFTISRDYAKNTVYLQMNSLKPEDTAVYYCSTSTCRGYSWGHGTQVTVSS | high polyreactivity |
| QVQLVESRGGLVQAGGSLRLSSASSGSIFDIYEMGRYRQAPGKERELLASITWSRGSTYYADSVKGRFTISRDNAKNSVYLQINCLKPEDTAVYYCGTDKLFGRTVRMDYWGQGTQVTVSS | low polyreactivity |
| QVQLVESGGGLVQAGGSLRLSCAASGITFYRNAMGWYRQAPGKERELVATITRGGSTYYADSVKGRFTISRDNAKNTVYLQMNSLKPEDTAVYYCNRAGGYRTTFYSWGQGTQVTVSS | high polyreactivity |
| QVQLVESGGGLVQAGGSLRLSCAASGYIFQRDAMGWYRTAPGKEREFVAAIRYSGGSTYYADSVKGRFTISRDNAKNTVYLQMNCLKPEDTAVYYCAADQRDPWRSAYGYYYWGQGTQVTVSS | high polyreactivity |
| QVLLVESGGGLVQAGGSLRLSCAASGRIFNAYAMGWYRQAPGKERELVAAISRSGGRTYYADSVKGRFTISRDNAKITVYLQMNSLKPEDTAVYYCAADAWSEQYPKYYYWGQGTQVTVSS | low polyreactivity |
| QVQLVESGGGLVQAGGSLRLSCAASGRIFGPYTMGWYRQAPGKERELVATISYSGSTTYYADSVKWRFTISRDNAKNTVYLQMNSLKPEDTAVYYCNAQYYVFITFDYWGQGTQGTVSS | high polyreactivity |
| QVQLVESGGGLVQAGGSLRLSCAASGSTFDFNAMGWYRQAPGKERELVAAITGSGGSTDYADSVKGRFTISRDNAKNTVYLQMNSMKPEDTAVYYCNAGKTIDYRDGVGYDHWGQGTQVTVSS | low polyreactivity |
| QVQLVESGGGLVQAGGSLRLSCAASGFTFSHYAMGWYRQAPGKEMELVAAITWSGGSTYYADSVKGRFTISRDNAKNTVYLQMNSLKPEDTAVYYCAAESYLDGGDYWGQGTQVTVSS | high polyreactivity |
| QVQLVESGGGLVQAGGSLRLSCAASGSIFPGYAMGWYRPAPGKDRELVATIPWSGGSTYYADSVKGRFTISRDNENNTVYLQMNSLKPEDTAVYYCYADSYWYYQWYYYGLYDYWGAGTQVTVSS | low polyreactivity |
| QVQLVESGGGLVQAGGSLRLSCAASGSIFFTYAMGWYRQAPGKERELVAAISGVVSTYYADSVKGRFTISRDNAKNTVYLQMNSLKPEDTAVYYCAADYSWTGFGWEYDYWGQGTQVNVSS | low polyreactivity |
| QVQLVESGGGLVQAGGSLRLSCAASGSIFYPNAMGWYRQAPGKERELVADINTSGGDTYYADSVKGRFTISRDNAKNTVYLQMNSLKPEDTAVYYGAAEGYLYQYTSKPSDYWGQGTQVTVSS | low polyreactivity |
| QVQLVESGGGLVQAGGSLRLSCAASGRIFHYNDMVWYRQAPGKEREFVATIRYSGGSTYYADSVKGRFTISRDNAKNTVYLQLNSLKPEDTAVYYCATSRRYLRFRNYYGYDYWGQGTQVTVSS | high polyreactivity |
| QVQLLQTGGGLVQAGGSLRLSCAASGRIFVVNAMGWNRLAPGKEREMVADISSGVSTNYADSVKGRFTISRDNAKNTVYLQMNILKPEDTALYYCNSRFRFRYKFPSRNSWGQGTLVTVSS | high polyreactivity |
| QVQLVESGGGLVQAGGSLRLSCAASGTFYGNTMGWYRQAPGKERELVAVISIDVSTNYADSVKGRFTISRDNAKNTVYLQMNSLKPEDTAVYYCAADYLRQFRDYDYWGQGTQVTVSS | low polyreactivity |
| QVQLVESGGGLVQAGGSLRLSCPASGSNLSRYAMGWYRQAPGKERELVAGITWRGGSTYYADSVKGRFTISRDNAKNTVYLQMNSLKPEDTAVYYCARRYGGYKWVRAYYYWGQGTQVTLSS | high polyreactivity |
| QVQLVESGGGLVQAGGSLRLSCAASGFTFSLYGMGWYRQAPGKERELVAAIRSGGSRNYADSVKGRFTISRDNAKNTVYLQMNSLKPEDTAVYYCATDIHSVHNNRDKHDYDYWGQGTQVTVSS | low polyreactivity |
| QVQLVESGGGLVQAGGSLRLSCAASGFIFWANAMGWYRQAPGKERELVAAITWRNGRTYYADSVKGRFTISRDNAKNTVYLQMNSLKPEDTAVYYCAAPGSYARGTGRDYWGQGTQVTVSS | high polyreactivity |
| QVQIVESGGGLVQAGGSLRLSCAASGGIYTRYVMGWYRQAPGTERELVAAISSGGSTYYADSVKGRFTISRDNAKNTDYFQMNSLKPEDTAVYYCAAGYYIYLIRKFIYDYWGQGSQVTVSS | high polyreactivity |
